In the DeepSol protein solubility set:

Assay: soluble on expression in E. coli; label from the status in PepcDB or PDB records

Row | Sequence | soluble on expression in E. coli
1 | MAHHHHHHMAQASGCELMDFVSVLPVPPQTERRRGVLRFVGSTDFAPGLWMGIELFGTIGRNDGSVMGKSYFSCPAGQGVFVRPELVVPYMSEGEGPSGTVRKGDEFLAVVEPLRADLTRMQEELQQREAALRDAREELRNVMALHDAKSVELEREREEKSRMIMLTMTACRNNVTATTQTDEDKAVEVKDLEIHRLQQQCADLRDLCELQEDEIHRQREHADDLAQIVENLRREHEEERVRMVEKIRSLEEEITQRQKATAEDSAKADVEDMHLHAFQQQQEKEALRILKERYEQLYAERESERHEQEAKWKRATAEYEEALTQQREYKNRLLNEIRQLQHEIKDMRHSRERERVLQVPLSTLERDEYESQIYGLQWELMGVHEEMFSKRYDHFLAPVSSWNLPADVMRALSEEIMSLERVLPFTTPEKCQQSRMVLFQMHPRDAEGGTIAAAPL | not soluble
2 | GSHGGIEGVKGAASGVVGELARARLALDERGQKLSDLEERTAAMMSSADSFSKHAHEMMLKYK | soluble
3 | MSLRSKLFLILTLHRSGSSATAGVLYHLGVHMGQHLLKENESNPKGHFENEEFVAVNDRILHTIGGSWKKPPSPELIKQLKIPRRQVETFLLQHAKPAWGIKDPRMLLTFDLWKGPMERVADITYIIVHRPIKESIASLVRRNDMTELEAQQILLPYLGNKQRIREQLVEEGADIIDVHFSDLLQHPDELVAAVNQRLGRAPKKRLDDVRLFLDHSLKHEGHHHHHH | soluble
4 | MANKNYQMSTGVTAVVQKVVEACQDESKRLDLIEIARSYPPNQLRNMQRTFQAITGTFLDAFLKKHLSKDFESLVLMLYKPRAQLLCELIRGATKGAGTDEKCLVDVLLTIETHEVREIRQLYYQLYNDSLGDVVRKDCGDKYMWAKLINAVATGDRIPRDTHELEEDLVLVRKAIETKGVKKDEVSTWIRIFATYTRADFRQLHKMYSAKYNGDSLRAGVEDEFQGLDEYAFKLAHDFLYDPCCAAAFSMNVAFAGSGSDSNRLNRITAMHFRECKGCKYYYKKVYGQAFDERCATELKGVYGDAIKLLWEPVTVPLLSMDDYQGSEQHRPMTLEL | soluble
5 | MVSDISNSRILRRRSSTFTDPTNLLAVHELRSRILQDPAISVKHLSDDVHRIRHEDWWLDRFLGSVNYDVDIAYAIMLECLKWRRNFEVDRISLLSLKPLLDNQLMYLHGKDLQNRHMLWIMMNKYKNGDDGFEKLFTFWIERHYMEYKGCQPLTVFIDMTGTGLKNMSFDAMKFIIHSSKYYYPNSIESILIFENPAILNASWKVIGSWLESSAASQRHDLLTFVTKLSVTHYVPKSHLLEHQGGTDTFKFTMDELAKCLPPPPPPKPSPKLLQQRMHSIDDSTNNNNVKFDEESTTKRAPSLSRRSSRGPKSRKSHIPPSLRPLIENRVNAPSDDWSSNDFVSITPRDELRLEKLDGENDLLDVVLVKNQSSDTPIMFKFKTTSPEKFRVRPSSGIVQPGTTEIIRVYLQYGESTDTRGTKKSFCFLQWNRHQQTLKASLNSSNQQATRQNSNSNVDCQKI | not soluble
6 | AIASAADDVNKKRKTAKEVEQEECEIYQNVVFNSIVDSNSKHELVDPSLQKLGAKSRGKVTFLLEQASLELVKIDRKWEILNGDEHQQYMKRKNLNPADYRPDIVHQCVLSLLDSPLNKAGYLDLYIHTTNNVLIKVNPQTRIPRTLKRFCGLTVQLLQDLKIFGHGLNKPLLQIIQNPITNHLPDMCWKTVCSYNCENLMSPHKHAQEVLKKDMNILYVIGAMAHGKIVEEWADEELKISSFPLSASAVCHRICSAYEILYEVL | soluble
7 | MTDMKVLKMEVMRYNPERDSEPHFETFEVPYDEQTSLLDALGYIKDNLAPDLSYRWSCRMAICGSCGMMVNKVPKLACKTFLREYTAGMKVEALGNFPIERDLVVDMTHFIESLEAIKPYIIGNERLPKDGPNKQTPAQMAKYHQFSGCINCGLCYAACPQFGLNPEFIGPAAITLAHRYNLDNRDHGKKERMPQLNGKNGVWSCTFVGYCSEVCPKHVDPAAAIQQGKIDSAKDFMIAMLKPQ | not soluble
8 | MGSSHHHHHHSSGLVPRGSHMEQMHSLESSLPPEQPPTKQAIESLNLELSQEFKLAANAVTRLYRVANEKNSLTKHQGYLTCLDDILCALDSNVTADELRAWCYKRRNDILSNSQDKSLNPVKERERKLNKFSENQHRENEAHKEPFEKDSAVKYNFSFNESNGDLSNINENIAPKFRLSMPPLSVEHPPRNASRIKSWKARTINHGRGDTRNLNDITGLGHERERDRENTHYEKKPKLDSDSEVDIRSFRQDMDL | soluble
9 | MSLGAIVEVITIKNYSLKSENYEAEIDIPKIRGLKDKNLEQRLNSSFMEDGKRLYHQFQERMEKIQSSKNKGYKSLSLSYSVKNNSKKFLSIEMTKNEIEASSYVSKVHYTIDKKRQIVLTLPMLFKDDKYIKVISDNIKEQMREQMKKDSTKSYFIDEGHHHHHH | not soluble
10 | MAGKWNVLSLLAFRPCQPALPHDNHGGGMDAIYLKLDGIEGESRIKGFENQIKLIAYNHNPTKRESGEARGTYIGGLTLTKPVDLATPGLYEHYCNGKTVKEGVLTLCRRDKGAMLPFIIYTLTNVRISRMSNHGDAEGSATETVDLVYSHIRWDIPALASKSKTRRPLHRQALWR | not soluble
11 | MNALDLDVLQHARDWLASGRRVHLVTVVQTWGSAPRQAGAMLAVRDDGQVVGSVSGGCIEDDLIARARAGTLPERAERLTYGVTRDEATRFGLPCGGTLRLVAEPLAPRDAWLDEVLQAIAEHRLVRRTIDLHTGAAALEAAAPAEGPDFDGRMFRAVYGPHWRLLIIGANQTAQVRADIAATLDFQVIVCDPREEFHAAWHAPHATLVTTMPDDTVLEIGTDERTAIVALTHDPKLDDMVLLEALKSRAFYVGALGSRANQEKRRERLRLFDLGDEDIARLRGPVGLPIASRTPAEIAVAVAAELVWVRNTLGDREPSGAPLPAALAPAR | not soluble
12 | MELDGKAPSHRNLNVQTWSTAEGAKVLFVEARELPMFDLRLIFAAGSSQDGNAPGVALLTNAMLNEGVAGKDVGAIAQGFEGLGADFGNGAYKDMAVASLRSLSAVDKREPALKLFAEVVGKPTFPADSLARIKNQMLAGFEYQKQNPGKLASLELMKRLYGTHPYAHASDGDAKSIPPITLAQLKAFHAKAYAAGNVVIALVGDLSRSDAEAIAAQVSAALPKGPALAKIEQPAEPKASIGHIEFPSSQTSLMLAQLGIDRDDPDYAAVSLGNQILGGGGFGTRLMSEVREKRGLTYGVYSGFTPMQARGPFMINLQTRAEMSEGTLKLVQDVFAEYLKNGPTQKELDDAKRELAGSFPLSTASNADIVGQLGAMGFYNLPLSYLEDFMRQSQELTVEQVKAAMNKHLNVDKMVIVSAGPTVAQKPLEHHHHHH | soluble
13 | MGSDKIHHHHHHMRVDVMVIGAGAAGMAAALKAKEEGAEVLLVERDERTGGILNQCIHNGFGLHYFRQELTGPEYAERFQEKMEKMGIRALTNAYVKRVEDRRVILVTEQGIEEVEVGALVYATGARERPFGSLMIPGDRPSGIFTAGVAQRLINIENRLPGKRALILGSGDIGLIMARRLTLEGMEVVGVVERLPYAGGLLRNVIQCLEDYNIPLYLSSTVVEVRGRERLEEVVVAKVDEQFRPIPRTERVFKVDTLVLSVGLIPQVELIENLVVKNPTSRGVGVSNIGQTSRDWIFSAGNCTVIFDLVDYVSYEGETAGRYAAKFVKGEIPREKIPVRPGKNVMVVHPIWYTPAEPLTLYLRVKKPMEKGRLVVGRFAREFEDLVPSEMLRVKISDRDLEGLDEIVVSVEEVN | not soluble
14 | MKVWRVEKREEGWRLDQFLKEKTPSWISRSMIQKAIKEGKVKVNGQIKKPSYKLKEGEIVEVDLPEKPQEATVQPEEIELKVLYEDRDIIVIDKPGDMIVHPVPSKLSGTLVNALLHHCKDLQGVGGKLRPGIVHRLDKETSGVIVVAKNDFAHQSLSKQFKDRKVKKTYILLVKGKMKNDEGVIDLPLARHPVLRIKMAVVETGKEAITEYRVLKRFDDVATLVLAFPKTGRTHQIRVHMKSLGHPIMGDKIYGKPKEDEIFGIKRQMLHALKLGFFHPRTGEWMEFVSPLPEDFKEAIRRIHEYVRERS | soluble
